{"source": "paper PMC8124269", "about": "“Antiviral Properties of the NSAID Drug Naproxen Targeting the Nucleoprotein of SARS-CoV-2 Coronavirus”", "target": "SARS-CoV-2 N NTD (batch 2, monomer) (SARS-CoV-2, UniProt P0DTC9 50-173)", "assay": "DLS; Anisotropy: 10 mM Tris pH 8.0, 50 mM NaCl, 2 mM beta-mercaptoethanol, thermostated (temperature not stated); DLS: 20 mM Tris pH 7.9, 100 mM NaCl, 20 C", "conditions": "protein: recombinant; tags: N-terminal His6 (pET-28a); single strand"}
{"binder": "ATATATATCTATGTCCATATATATATAAAACACAGCGTGTGTGTGTAA (ssDNA)", "note": "[48-mer ssDNA]", "values": [{"measurement": "binding result", "value": "binds"}]}
